Data on two proteins can be found in article PMC5437272, “ISCA1 is essential for mitochondrial Fe4S4 biogenesis in vivo” (Nature Communications, 2017).

Broadly, the stoichiometry N is the number of molecules, sites or subunits per partner or assembly.

“And” between values parts separate entries of the source, which are not always exact repeats. Identical values can stand only once.

This series deals with the molecule itself. The series can be described thus: SEC; analytical Superdex-75, 0.5 ml min^-1, buffer E (100 mM Tris-HCl pH 7.5, 100 mM NaCl, 5 mM DTT), calibrated with molecular weight standards; oligomerization state of the ISCA proteins. (In general: SEC sorts molecules by how far they enter the pores of the column.)

B1: His-ISCA2 (mouse recombinant ISCA2, mature form) (natural protein, UniProt Q9DCB8 38-154, looked up)
chain: TTSSIPEAGEGQIRLTDSCVQRLLEITEGSEFLRLQVEGGGCSGFQYKFSLDTVINPDDRVFEQGGARVVVDSDSLAFVKGAQVDFSQELIRSSFQVLNNPQAQQGCSCGSSFSVKV
notes: ISCA2, mouse, mature form cloned into pET-11a; theoretical mass of the His-tagged monomer 13,554 Da; As purified it holds a Fe2S2 cluster; also called Fe2S2-ISCA2; source: E. coli BL21(DE3)/pET-ISCA2, purified under anaerobic condition (Ni-NTA); not shown: His tag, N-terminal, kept
For the protein B1, the “stoichiometry N” value is 2.

B2: His-ISCA1 (mouse recombinant ISCA1, mature form) (natural protein, UniProt Q9D924 13-129, looked up)
chain: VSKRKLQPTRAALTLTPSAVNKIKQLLKDKPEHVGLKVGVRTRGCNGLSYSLEYTKTKGDSDEEVIQDGVRVFIEKKAQLTLLGTEMDYVEDKLSSEFVFNNPNIKGTCGCGESFHV
notes: ISCA1, mouse, mature form cloned into pET-11a; theoretical mass of the His-tagged monomer 13,898.8 Da; As purified it holds a Fe2S2 cluster; By gel filtration a mixture of dimer (main) and tetramer (minor); also called Fe2S2-ISCA1; source: E. coli BL21(DE3)/pET-ISCA1, purified aerobically (Ni-NTA); not shown: His tag, N-terminal, kept
On to B2, for which the “stoichiometry N” value was 2 and 4.
